Data published in IntAct's records for PubMed 35512704.

B1: Mothers against decapentaplegic homolog 4 (Homo sapiens), Q13485 (parent)
chain: MDNMSITNTPTSNDACLSIVHSLMCHRQGGESETFAKRAIESLVKKLKEKKDELDSLITAITTNGAHPSKCVTIQRTLDGRLQVAGRKGFPHVIYARLWRWPDLHKNELKHVKYCQYAFDLKCDSVCVNPYHYERVVSPGIDLSGLTLQSNAPSSMMVKDEYVHDFEGQPSLSTEGHSIQTIQHPPSNRASTETYSTPALLAPSESNATSTANFPNIPVASTSQPASILGGSHSEGLLQIASGPQPGQQQNGFTGQPATYHHNSTTTWTGSRTAPYTPNLPHHQNGHLQHHPPMPPHPGHYWPVHNELAFQPPISNHPAPEYWCSIAYFEMDVQVGETFKVPSSCPIVTVDGYVDPSGGDRFCLGQLSNVHRTEAIERARLHIGKGVQLECKGEGDVWVRCLSDHAVFVQSYYLDREAGRAPGDAVHKIYPSAYIKVFDLRQCHRQMQQQAATAQAAAAAQAAAVAGNIPGPGSVGGIAPAISLSAAAGIGVDDLRRLCILRMSFVKGWGPDYPRQSIKETPCWIEIHLHRALQLLDEVLHTMPIADPQPLD
partner: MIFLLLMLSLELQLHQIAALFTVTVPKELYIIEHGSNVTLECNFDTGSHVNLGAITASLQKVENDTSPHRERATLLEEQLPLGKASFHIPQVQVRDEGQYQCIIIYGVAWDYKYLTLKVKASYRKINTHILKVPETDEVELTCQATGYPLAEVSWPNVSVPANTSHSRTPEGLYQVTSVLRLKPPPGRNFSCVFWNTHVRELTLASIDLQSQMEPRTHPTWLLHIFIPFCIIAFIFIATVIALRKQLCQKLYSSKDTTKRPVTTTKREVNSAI
B2: Mothers against decapentaplegic homolog 4 (Homo sapiens), Q13485 (parent)
chain: B1 chain
partner: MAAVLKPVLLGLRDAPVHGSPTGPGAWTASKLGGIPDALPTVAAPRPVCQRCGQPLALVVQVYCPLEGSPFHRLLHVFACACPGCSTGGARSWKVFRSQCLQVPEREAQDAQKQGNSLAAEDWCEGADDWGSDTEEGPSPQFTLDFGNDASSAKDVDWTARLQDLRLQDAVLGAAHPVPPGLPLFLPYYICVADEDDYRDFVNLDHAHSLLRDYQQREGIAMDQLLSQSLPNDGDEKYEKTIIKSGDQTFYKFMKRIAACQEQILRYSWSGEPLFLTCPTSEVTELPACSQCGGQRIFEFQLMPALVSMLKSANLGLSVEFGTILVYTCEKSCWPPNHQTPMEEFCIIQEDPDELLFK
B3: Mothers against decapentaplegic homolog 4 (Homo sapiens), Q13485 (parent)
chain: B1 chain
partner: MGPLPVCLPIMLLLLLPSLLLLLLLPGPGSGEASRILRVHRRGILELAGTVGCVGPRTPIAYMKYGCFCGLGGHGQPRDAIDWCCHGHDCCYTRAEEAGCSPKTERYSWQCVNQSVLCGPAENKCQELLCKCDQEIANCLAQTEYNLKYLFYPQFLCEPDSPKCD
B4: Mothers against decapentaplegic homolog 4 (Homo sapiens), Q13485 (parent)
chain: B1 chain
partner: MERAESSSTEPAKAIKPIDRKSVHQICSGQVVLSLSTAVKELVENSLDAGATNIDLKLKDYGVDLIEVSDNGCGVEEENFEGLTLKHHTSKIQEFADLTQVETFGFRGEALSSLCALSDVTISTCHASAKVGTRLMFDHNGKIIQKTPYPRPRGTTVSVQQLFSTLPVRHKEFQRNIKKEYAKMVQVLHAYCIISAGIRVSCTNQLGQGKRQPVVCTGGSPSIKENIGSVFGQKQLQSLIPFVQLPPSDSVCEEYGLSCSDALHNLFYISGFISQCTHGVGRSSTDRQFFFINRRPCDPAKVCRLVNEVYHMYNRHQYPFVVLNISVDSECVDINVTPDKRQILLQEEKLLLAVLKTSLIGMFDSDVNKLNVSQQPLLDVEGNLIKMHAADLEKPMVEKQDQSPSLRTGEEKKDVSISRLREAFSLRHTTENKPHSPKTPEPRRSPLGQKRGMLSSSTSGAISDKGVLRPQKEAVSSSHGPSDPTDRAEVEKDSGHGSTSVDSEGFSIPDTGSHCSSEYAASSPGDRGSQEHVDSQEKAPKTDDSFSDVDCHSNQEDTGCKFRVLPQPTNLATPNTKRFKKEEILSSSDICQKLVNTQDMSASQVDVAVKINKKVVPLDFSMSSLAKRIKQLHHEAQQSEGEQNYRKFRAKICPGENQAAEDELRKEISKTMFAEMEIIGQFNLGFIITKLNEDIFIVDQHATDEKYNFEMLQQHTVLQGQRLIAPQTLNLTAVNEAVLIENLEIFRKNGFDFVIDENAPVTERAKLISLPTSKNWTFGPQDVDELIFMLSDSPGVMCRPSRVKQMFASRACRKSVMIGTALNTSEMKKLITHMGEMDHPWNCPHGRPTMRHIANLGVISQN
B5: Mothers against decapentaplegic homolog 4 (Homo sapiens), Q13485 (parent)
chain: B1 chain
partner: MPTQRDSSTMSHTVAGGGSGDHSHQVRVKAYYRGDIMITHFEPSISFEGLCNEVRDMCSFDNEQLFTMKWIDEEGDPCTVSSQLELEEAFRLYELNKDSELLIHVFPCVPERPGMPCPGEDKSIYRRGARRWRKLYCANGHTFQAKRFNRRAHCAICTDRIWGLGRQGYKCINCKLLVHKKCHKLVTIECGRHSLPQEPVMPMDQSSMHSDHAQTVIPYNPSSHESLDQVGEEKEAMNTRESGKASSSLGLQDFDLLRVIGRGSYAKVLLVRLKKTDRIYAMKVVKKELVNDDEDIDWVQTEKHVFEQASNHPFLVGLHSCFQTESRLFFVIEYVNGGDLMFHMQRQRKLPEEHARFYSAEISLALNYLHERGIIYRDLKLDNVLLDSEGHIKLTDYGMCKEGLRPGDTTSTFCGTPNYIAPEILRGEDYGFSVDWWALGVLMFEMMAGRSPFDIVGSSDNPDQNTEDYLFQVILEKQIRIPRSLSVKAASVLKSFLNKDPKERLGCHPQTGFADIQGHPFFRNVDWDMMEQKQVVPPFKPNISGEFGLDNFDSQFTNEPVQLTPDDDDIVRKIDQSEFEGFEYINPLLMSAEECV
B6: Mothers against decapentaplegic homolog 4 (Homo sapiens), Q13485 (parent)
chain: B1 chain
partner: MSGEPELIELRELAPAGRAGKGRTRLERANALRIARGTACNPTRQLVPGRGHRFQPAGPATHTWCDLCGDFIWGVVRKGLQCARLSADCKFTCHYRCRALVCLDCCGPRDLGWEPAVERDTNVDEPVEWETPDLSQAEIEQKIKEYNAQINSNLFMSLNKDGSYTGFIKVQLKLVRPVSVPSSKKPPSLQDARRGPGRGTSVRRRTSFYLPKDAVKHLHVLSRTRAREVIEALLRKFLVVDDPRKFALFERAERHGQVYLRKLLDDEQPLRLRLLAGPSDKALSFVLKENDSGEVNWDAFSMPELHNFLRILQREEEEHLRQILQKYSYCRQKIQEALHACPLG
B7: Mothers against decapentaplegic homolog 4 (Homo sapiens), Q13485 (parent)
chain: B1 chain
partner: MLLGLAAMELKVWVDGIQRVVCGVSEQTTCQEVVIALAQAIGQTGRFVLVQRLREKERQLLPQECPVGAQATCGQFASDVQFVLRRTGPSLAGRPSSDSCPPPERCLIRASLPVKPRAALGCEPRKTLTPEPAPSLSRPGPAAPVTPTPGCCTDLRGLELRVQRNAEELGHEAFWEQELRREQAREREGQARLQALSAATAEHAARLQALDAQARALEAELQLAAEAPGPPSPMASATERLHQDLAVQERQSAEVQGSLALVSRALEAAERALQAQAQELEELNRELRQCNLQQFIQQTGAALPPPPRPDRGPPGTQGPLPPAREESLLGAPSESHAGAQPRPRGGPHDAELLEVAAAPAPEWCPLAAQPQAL
B8: Mothers against decapentaplegic homolog 4 (Homo sapiens), Q13485 (parent)
chain: B1 chain
partner: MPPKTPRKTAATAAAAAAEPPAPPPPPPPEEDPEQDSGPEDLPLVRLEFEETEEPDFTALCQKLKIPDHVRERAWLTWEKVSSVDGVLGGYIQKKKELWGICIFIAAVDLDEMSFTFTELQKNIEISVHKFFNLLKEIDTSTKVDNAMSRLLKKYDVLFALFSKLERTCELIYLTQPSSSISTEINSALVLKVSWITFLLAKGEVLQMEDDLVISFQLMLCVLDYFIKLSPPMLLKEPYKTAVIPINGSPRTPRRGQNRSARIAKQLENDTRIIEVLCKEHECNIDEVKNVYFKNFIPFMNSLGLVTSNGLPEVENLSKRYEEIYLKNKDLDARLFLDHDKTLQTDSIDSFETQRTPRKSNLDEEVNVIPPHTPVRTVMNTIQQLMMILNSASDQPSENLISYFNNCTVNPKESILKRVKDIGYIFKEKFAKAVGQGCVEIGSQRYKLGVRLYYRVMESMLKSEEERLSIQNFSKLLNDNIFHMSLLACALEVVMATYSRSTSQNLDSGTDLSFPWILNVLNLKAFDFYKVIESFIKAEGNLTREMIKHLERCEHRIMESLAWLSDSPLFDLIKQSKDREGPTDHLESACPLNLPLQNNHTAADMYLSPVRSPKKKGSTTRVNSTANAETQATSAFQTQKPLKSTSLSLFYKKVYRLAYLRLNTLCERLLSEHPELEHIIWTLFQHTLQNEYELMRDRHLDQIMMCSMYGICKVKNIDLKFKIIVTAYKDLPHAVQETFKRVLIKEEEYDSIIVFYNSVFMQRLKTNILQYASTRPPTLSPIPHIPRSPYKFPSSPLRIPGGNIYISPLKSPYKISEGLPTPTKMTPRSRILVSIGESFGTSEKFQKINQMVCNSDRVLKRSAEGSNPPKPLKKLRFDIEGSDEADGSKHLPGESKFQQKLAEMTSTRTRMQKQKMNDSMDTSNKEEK

Variants of: B1
Conditions: with pd1l2_human PDCD1LG2, Q9BQ51

Row | Variant | effect of a mutation on the interaction
1 | D351H | with no effect

Variants of: B1
Conditions: with pd1l2_human PDCD1LG2, Q9BQ51
Remark: another data set of the same source

Row | Variant | effect of a mutation on the interaction
2 | G386D | with no effect

Variants of: B2
Conditions: with pdd2l_human PDCD2L

Row | Variant | effect of a mutation on the interaction
3 | D351H | with no effect

Variants of: B2
Conditions: with pdd2l_human PDCD2L
Remark: another data set of the same source

Row | Variant | effect of a mutation on the interaction
4 | G386D | with no effect

Variants of: B2
Conditions: with pdd2l_human PDCD2L
Remark: another data set of the same source

Row | Variant | effect of a mutation on the interaction
5 | R361C | with no effect

Variants of: B2
Conditions: with pdd2l_human PDCD2L
Remark: another data set of the same source

Row | Variant | effect of a mutation on the interaction
6 | R361H | with no effect

Variants of: B3
Conditions: with pa2gx_human PLA2G10, O15496

Row | Variant | effect of a mutation on the interaction
7 | D351H | with no effect

Variants of: B3
Conditions: with pa2gx_human PLA2G10, O15496
Remark: another data set of the same source

Row | Variant | effect of a mutation on the interaction
8 | G386D | with no effect

Variants of: B3
Conditions: with pa2gx_human PLA2G10, O15496
Remark: another data set of the same source

Row | Variant | effect of a mutation on the interaction
9 | R361C | with no effect

Variants of: B4
Conditions: with pms2_human PMS2, P54278

Row | Variant | effect of a mutation on the interaction
10 | D351H | with no effect

Variants of: B4
Conditions: with pms2_human PMS2, P54278
Remark: another data set of the same source

Row | Variant | effect of a mutation on the interaction
11 | G386D | with no effect

Variants of: B4
Conditions: with pms2_human PMS2, P54278
Remark: another data set of the same source

Row | Variant | effect of a mutation on the interaction
12 | R361C | with no effect

Variants of: B4
Conditions: with pms2_human PMS2, P54278
Remark: another data set of the same source

Row | Variant | effect of a mutation on the interaction
13 | R361H | with no effect

Variants of: B5
Conditions: with kpci_human PRKCI

Row | Variant | effect of a mutation on the interaction
14 | D351H | with no effect

Variants of: B5
Conditions: with kpci_human PRKCI
Remark: another data set of the same source

Row | Variant | effect of a mutation on the interaction
15 | R361H | with no effect

Variants of: B6
Conditions: with rasf1_human RASSF1, Q9NS23

Row | Variant | effect of a mutation on the interaction
16 | D351H | with no effect

Variants of: B6
Conditions: with rasf1_human RASSF1, Q9NS23
Remark: another data set of the same source

Row | Variant | effect of a mutation on the interaction
17 | G386D | with no effect

Variants of: B6
Conditions: with rasf1_human RASSF1, Q9NS23
Remark: another data set of the same source

Row | Variant | effect of a mutation on the interaction
18 | R361C | with no effect

Variants of: B6
Conditions: with rasf1_human RASSF1, Q9NS23
Remark: another data set of the same source

Row | Variant | effect of a mutation on the interaction
19 | R361H | with no effect

Variants of: B7
Conditions: with rasf7_human RASSF7, Q02833

Row | Variant | effect of a mutation on the interaction
20 | D351H | with no effect

Variants of: B7
Conditions: with rasf7_human RASSF7, Q02833
Remark: another data set of the same source

Row | Variant | effect of a mutation on the interaction
21 | G386D | with no effect

Variants of: B7
Conditions: with rasf7_human RASSF7, Q02833
Remark: another data set of the same source

Row | Variant | effect of a mutation on the interaction
22 | R361C | with no effect

Variants of: B7
Conditions: with rasf7_human RASSF7, Q02833
Remark: another data set of the same source

Row | Variant | effect of a mutation on the interaction
23 | R361H | with no effect

Variants of: B8
Conditions: with rb_human RB1, P06400

Row | Variant | effect of a mutation on the interaction
24 | D351H | with no effect
